Experimental data taken from patent US11505783B2, “Differentiation of human embryonic stem cells” (Janssen Biotech, Inc., priority 2007, dated 2022).
Where two headings read alike, the source gives them in different places.

How the values were obtained:
[1] = system: human embryonic stem cell line H1; details: 1-10 μm at stages 4 and 5; end of stages 4 to 5; compared to controls (standard treatment)
Description: Next the cultures were treated with DMEM/F12+2% FBS+20 ng/ml FGF7+0.25 μm Cyclopamine-KAAD (#239804, Calbiochem, CA) for three days followed by four day incubation in DMEM/F12+1% B27 (Invitrogen, CA)+20 ng/ml FGF7+0.25 μm Cyclopamine-KAAD+2 μm Retinoic acid (RA) (Sigma, MO).
Next, cells were cultured in DMEM/F12+1% B27 (Invitrogen, CA)+50 ng/ml Exendin-4 (Sigma, MO)+1 μm DAPT (Calbiochem, CA) for six days followed by additional three days incubation in DMEM/F12+1% B27 (Invitrogen, CA)+50 ng/ml Exendin-4 (Sigma, MO)+50 ng/ml IGF (Peprotech, N.J.)+50 ng/ml HGF (R&D Systems, MN).

[2] = system: human embryonic stem cell line H1; details: end of stage 5, real-time PCR
Description: (§1) Cells of the human embryonic stem cell line H1, at passage 51 were cultured on […]™ coated dishes (1:30 dilution) and exposed to DMEM/F12 medium supplemented with 0.5% FBS, and 100 ng/ml Activin-A (R&D Systems, MN) plus 20 ng/ml WNT-3a (Catalog #1324-WN-002, R&D Systems, MN), for two days followed by treatment with DMEM/F12 media supplemented with 2% FBS and 100 ng/ml Activin-A (AA) for an additional two days. Next the cultures were treated with DMEM/F12+2% FBS+20 ng/ml FGF7+0.25 μm Cyclopamine-KAAD (#239804, Calbiochem, CA) for three days followed by four day incubation in DMEM/F12+1% B27 (Invitrogen, CA)+20 ng/ml FGF7+0.25 μm Cyclopamine-KAAD+2 μm Retinoic acid (RA) (Sigma, MO).
Next, the cells were cultured in DMEM/F12+1% B27 (Invitrogen, CA)+50 ng/ml Exendin-4 (Sigma, MO)+1 μm DAPT (Calbiochem, CA) for six days followed by additional three days incubation in DMEM/F12+1% B27 (Invitrogen, CA)+50 ng/ml Exendin-4 (Sigma, MO)+50 ng/ml IGF (Peprotech, N.J.)+50 ng/ml HGF (R&D Systems, MN). Some of the cultures were treated with 1 μM of the following compounds at either stage 3, stage 4, or stages 3+4: MEK/MAPK inhibitor (2′-Amino-3′-methoxyflavone) (PD98059, Calbiochem, CA), RAF kinase inhibitor (5-Iodo-3-R3,5-dibromo-4-hydroxyphenyl)methylenel-2-indolinone) (#553008, Calbiochem, CA), SMAD3 inhibitor (6,7-Dimethyl-2-((2E)-3-(1-methyl-2-phenyl-1Hpyrrolo[2,3-b]pyridin-3-yl-prop-2-enoyl))-1,2,3,4-tetrahydroisoquinoline) (#566405, Calbiochem, CA), AKT inhibitor (1L6-Hydroxymethyl-chiroinositol-2-(R)-2-O-methyl-3-O-octadecyl-sn-glycerocarbonate) (#124005, Calbiochem, CA), MEK inhibitor (#444937 Calbiochem, CA), and TGF-B receptor I inhibitor (2-(3-(6-Methylpyridin-2-yl)-1H-pyrazol-4-yl)-1,5-naphthyridine) (inhibits activin receptor-like kinase 5, #616452, Calbiochem, CA).

[3] = system: human embryonic stem cell line H1; details: end of stage 5, real-time PCR; remark: listed apart in the source
Description: as §1, with “44” for “51”
Next, cells were cultured in DMEM/F12+1% B27 (Invitrogen, CA)+50 ng/ml Exendin-4 (Sigma, MO)+1 μm DAPT (Calbiochem, CA) for six days followed by additional three days incubation in DMEM/F12+1% B27 (Invitrogen, CA)+50 ng/ml Exendin-4 (Sigma, MO)+50 ng/ml IGF (Peprotech, N.J.)+50 ng/ml HGF (R&D Systems, MN). Some of the cultures were treated with 1 μM of TGF-B receptor I kinase inhibitor (2-(3-(6-Methylpyridin-2-yl)-1H-pyrazol-4-yl)-1,5-naphthyridine) (an inhibitor of activin receptor-like kinase 5, #616452, Calbiochem, CA) at stage 4, stage 5, or stages 4 and 5.

[4] = system: human embryonic stem cell line H1; test: Real-time PCR of markers, Noggin at stages 3-4, Netrin-4 and ALK5 inhibitor II at stage 4 (Example 8); assay type: cell-based
[5] = system: human embryonic stem cell line H1; test: Real-time PCR of markers, Noggin at stages 3 and/or 4 with ALK5 inhibitor II at stages 4 and 5 (Example 7); assay type: cell-based
Text: FIGS. 8A-8D depict a phase contrast image of the cultures according to the above protocol. In some of the cultures, stage 5 was extended from 3 days to 21 days. By day 10-12 of culture in stage 5 media, there were distinct clusters of cells resembling human islets present throughout the culture plate. FIGS. 8A-8B show images of day 6 cultures in stage 5 while FIGS. 8C-8D show images of day 12 stage 5 cultures. Some of the clusters were manually removed, plated on 1:30 […]-coated plates in stage 5 media. After 2 days of incubation, the clusters were stained for insulin and glucagon. The majority of the cells in the clusters as shown in FIGS. 9A-9B were positive for human insulin. In order to further optimize the dose of the BMP inhibitor, Noggin; cultures were treated at stage 2-4 with 0, 10, 50, or 100 ng/ml of Noggin. FIG. 10 depicts expression of NGN3 at stage 4 for cultures treated with varying doses of Noggin at stages 2-4.

[6] = system: human embryonic stem cell line H1; test: Real-time PCR of markers, Noggin at stage 3 with ALK5 inhibitor II at stages 4 and 5 (Example 6); assay type: cell-based
Description: Cells of the human embryonic stem cell line H1, at passage 41 were cultured on […] ™ coated dishes (1:30 dilution) and exposed to DMEM/F12 medium supplemented with 0.5% FBS, and 100 ng/ml Activin-A (R&D Systems, MN) plus 20 ng/ml WNT-3a (Catalog #1324-WN-002, R&D Systems, MN), for two days followed by treatment with DMEM/F12 media supplemented with 2% FBS and 100 ng/ml Activin-A (AA) for an additional two days. Next the cultures were treated with DMEM/F12+2% FBS+20 ng/ml FGF7+0.25 μm Cyclopamine-KAAD (#239804, Calbiochem, CA) for three days followed by four day incubation in DMEM/F12+1% B27 (Invitrogen, CA)+20 ng/ml FGF7+0.25 μm Cyclopamine-KAAD+2 μm Retinoic acid (RA) (Sigma, MO)+0-500 ng/ml of Noggin (R & D Systems, MN).

[7] = 1 μM added at stage 4 or stages 3 and 4
[8] = 1 μM added at stage 4 or stages 4 and 5
[9] = Noggin at both stages 3 and 4, compared to untreated samples
[10] = omission of Noggin at stage 4, Netrin-4 plus Alk5 inhibitor added, end of stage 5

## Cc1cccc(-c2n[nH]cc2-c2ccc3ncccc3n2)n1 [ALK5 inhibitor II, 2-(3-(6-Methylpyridin-2-yl)-1H-pyrazol-4-yl)-1,5-naphthyridine]
[1]
  expression of insulin, glucagon, PDX-1 and NeuroD: significantly enhanced
[2]; [7]
  expression of PDX-1: marginally affecting
  expression of insulin, glucagon, NeuroD, and NKX2.2: significantly enhanced
[2]; 1 μM added only at stage 3
  expression of endocrine markers: marginally upregulated
[3]; [8]
  expression of PDX-1: marginally affecting
  expression of insulin, glucagon, NeuroD, and NKX2.2: significantly enhanced
[3]; 1 μM added only at stage 5
  expression of endocrine markers: marginally upregulated

B1: Netrin-4: netrin protein added at 100 ng/ml (R&D Systems) (protein, UniProt Q9HB63 19-628, looked up)
Netrin-4: GLSGVAGVSSRCEKACNPRMGNLALGRKLWADTTCGQNATELYCFYSENTDLTCRQPKCDKCNAAYPHLAHLPSAMADSSFRFPRTWWQSAEDVHREKIQLDLEAEFYFTHLIVMFKSPRPAAMVLDRSQDFGKTWKPYKYFATNCSATFGLEDDVVKKGAICTSKYSSPFPCTGGEVIFKALSPPYDTENPYSAKVQEQLKITNLRVQLLKRQSCPCQRNDLNEEPQHFTHYAIYDFIVKGSCFCNGHADQCIPVHGFRPVKAPGTFHMVHGKCMCKHNTAGSHCQHCAPLYNDRPWEAADGKTGAPNECRTCKCNGHADTCHFDVNVWEASGNRSGGVCDDCQHNTEGQYCQRCKPGFYRDLRRPFSAPDACKPCSCHPVGSAVLPANSVTFCDPSNGDCPCKPGVAGRRCDRCMVGYWGFGDYGCRPCDCAGSCDPITGDCISSHTDIDWYHEVPDFRPVHNKSEPAWEWEDAQGFSALLHSGKCECKEQTLGNAKAFCGMKYSYVLKIKILSAHDKGTHVEVNVKIKKVLKSTKLKIFRGKRTLYPESWTDRGCTCPILNPGLEYLVAGHEDIRTGKLIVNMKSFVQHWKPSLGRKVMDILKRECK
[4]; 100 ng/ml Netrin-4 and ALK5 inhibitor II at stage 4 plus 100 ng/ml Noggin at stage 3 and 4
  expression of NGN3, NeuroD, and Pax4: dramatically enhanced

B2: Noggin: recombinant human Noggin, BMP inhibitor (R & D Systems) (protein, UniProt Q13253 28-232, looked up)
Noggin: QHYLHIRPAPSDNLPLVDLIEHPDPIFDPKEKDLNETLLRSLLGGHYDPGFMATSPPEDRPGGGGGAAGGAEDLAELDQLLRQRPSGAMPSEIKGLEFSEGLAQGKKQRLSKKLRRKLQMWLWSQTFCPVLYAWNDLGSRFWPRYVKVGSCFSKRSCSVPEGMVCKPSKSVHLTVLRWRCQRRGGQRCGWIPIQYPIISECKCSC
[5]; 100 ng/ml Noggin at stage 3+4 plus ALK5 inhibitor II, stages 4-5
  expression of insulin and glucagons: dramatically enhanced
[5]; [9]
  expression of NGN3: significantly enhanced
  expression of albumin and CDX2: significantly suppressing
[5]; cultures treated at stage 2-4 with 0, 10, 50, or 100 ng/ml
  Noggin concentration resulting in maximal expression of NGN3 at stage 4: 50 to 100 ng/mL
[4]; [10]
  expression of NGN3, NKX2.2, and NeuroD: significantly reduce
  expression of insulin and glucagon: moderately affecting
[6]; 100 ng/ml at stage 3, compared to untreated samples
  expression of albumin and CDX2: significantly suppressing
[6]; 100 ng/ml at stage 3, end of stage 4, 1 μm ALK5 inhibitor II at stages 4 and 5
  expression of insulin and glucagon: marginally enhanced
[6]; 500 ng/ml at stage 3
  expression of PDX-1: did not affect
  expression of endocrine markers, along with albumin and CDX2: significantly diminish
